One molecule from patent CN115536747A can be followed below.

This assay concerns the target 人TROP2 on cells (表达TROP2的CHO细胞系; MCF, MDA-MB-231, MDA-MB-468, HCC1395 breast cancer cells) (human) (UniProt P09758). Description: flow cytometry, scFv-Fc on CHO cells expressing TROP2.
Sequence of UniProt P09758 (P09758 27-323): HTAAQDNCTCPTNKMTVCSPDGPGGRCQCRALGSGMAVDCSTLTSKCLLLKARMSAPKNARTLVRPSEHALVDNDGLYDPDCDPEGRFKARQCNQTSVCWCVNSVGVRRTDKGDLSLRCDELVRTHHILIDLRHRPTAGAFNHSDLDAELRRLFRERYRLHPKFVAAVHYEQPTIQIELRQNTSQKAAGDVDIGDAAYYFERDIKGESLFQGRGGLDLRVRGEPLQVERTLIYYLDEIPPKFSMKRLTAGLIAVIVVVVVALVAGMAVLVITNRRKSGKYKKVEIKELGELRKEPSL

B1: 1F7 scFv-Fc蛋白 (from pFH-1F7; scFv fused to human IgG4 Fc) (Fc fusion, not shown: a dimerising Fc or GST)
chain: QVQLVQSGAEVKKPGASVKVSCKASGYTFTSYGINWVRQATGRGLEWMGWMNPNSGNTGYAQKFQGRVTITADESTSTAYMELSSLRSEDTAVYYCARPNTGGDGAFDIWGQGTMVTVSSGGSSRSSSSGGGGSGGGGDIQLTQSPSSVSASVGDRVTITCRASQGISSWLAWYRQKPGKAPKLLIYAASSLQSGVPSRFSGSGSGTDFTLTISSLQPEDFATYYCQQANSFPITFGQGTRLEIK
Molecule B1 yielded a 阳性百分数 of 89.3%.
